The numbers were not newly measured in paper PMC6348423, “Rapid Mapping of Protein Interactions Using Tag‐Transfer Photocrosslinkers” (Angewandte Chemie (International Ed. in English), 2018), which cites them from elsewhere.

This series addresses Skp. Conditions: read-out: KD of Skp/OmpA complex; cited from earlier work.

B1: OmpA: E. coli β-barrel outer membrane protein, substrate of the periplasmic chaperone Skp (protein, UniProt P0A910 22-346, looked up)
Outer membrane protein A: APKDNTWYTGAKLGWSQYHDTGFINNNGPTHENQLGAGAFGGYQVNPYVGFEMGYDWLGRMPYKGSVENGAYKAQGVQLTAKLGYPITDDLDIYTRLGGMVWRADTKSNVYGKNHDTGVSPVFAGGVEYAITPEIATRLEYQWTNNIGDAHTIGTRPDNGMLSLGVSYRFGQGEAAPVVAPAPAPAPEVQTKHFTLKSDVLFNFNKATLKPEGQAALDQLYSQLSNLDPKDGSVVVLGYTDRIGSDAYNQGLSERRAQSVVDYLISKGIPADKISARGMGESNPVTGNTCDNVKQRAALIDCLAPDRRVEIEVKGIKDVVTQPQA
With B1, the Kd is 22 ± 16 nM.
